The data set in a line: soluble on expression in E. coli; label from the status in PepcDB or PDB records.
For “MQMQPKVGQFRYYPSVGSLNTYLTNMLEKIRVELPDIQRISFALYDEKKDSIKTCADSSPVSHDFVHYELPLANLPSLQQSKESGALRIIHDLANQAKSHTPHNRWLLEQQYCSSLVKPVFDQHTFVGFLFFNASMSHYFSASVVERLETYLSLIQQSICGEYALIHQLVDHVHQIETQSPEHWLHIKQHKERISRYARIIALDVADQYALDDELIENISQFATCHDLGKLALPADLLQKRASLANHEKEQVHNHIEYGIDLLNEVIAKLGTPHHPCLAVLREIMAYHHEFLDGSGYPFGLVSDQIPIPARIIAVANIFDALTAHRPYKQAQSIPHALLELEKMVSDGKLDRHCVNALRENQEELKEIVARFPEQDPKDQGITH”, the “soluble on expression in E. coli” value is on record as “not soluble”.
Next, “MNDSIDDDFPPEPRGRCYTWPMQQYIYQESSATIPHHHLNQHNNPYHPMHPHHQLPHMQQLPQPLLNLNMTTLTSSGSSVASSIGGGAQCSPCASGSSTAATNSSQQQQTVGQMLAASVPCSSSGMTLGMSLNLSQGGGPMPAKKKRCRKKPTDQLAQKKPNPWGEESYSDIIAKALESAPDGRLKLNEIYQWFSDNIPYFGERSSPEEAAGWKNSIRHNLSLHSRFMRIQNEGAGKSSWWVINPDAKPGRNPRRTRERSNTIETTTKAQLEKSRRGAKKRIKERALMGSLHSTLNGNSIAGSIQTISHDLYDDDSMQGAFDNVPSSFRPRTQSNLSIPGSSSRVSPAIGSDIYDDLEFPSWVGESVPAIPSDIVDRTDQMRIDATTHIGGVQIKQESKPIKTEPIAPPPSYHELNSVRGSCAQNPLLRNPIVPSTNFKPMPLPGAYGNYQNGGITPINWLSTSNSSPLPGIQSCGIVAAQHTVASSSALPIDLENLTLPDQPLMDTMDVDALIRHELSQAGGQHIHFDL”: “not soluble”.
Next, “MGSDKIHHHHHHMTPKRFAFVIADLYGGGAEKSLLYTAAGLHQRGHTVKVFILRDRIEQPIPDGVTVENLALINRFSKMFSTPLVEKWQAARIARTLDDFAADVVLSCSCDKITRHLRHPNLWFWIKSDISAKFSDPDQRAKAFAKVHRFYTGRNVVAVSQGVKDNLLDVIGLRPAEIRAIYNPYEREPFLRLAEEPAPVPEGEYLINVGTYEPRKRHDRLLRAYKASGVTTPLVLLGKGKGDEEARLRKMIEDMGLAERVILPGYQTNPYPFIRHAKALILTSDAEGLPRALIESLLLGTPVVSVDCPSGPREILAGELADFLVPREDEAALADAIARMDAAPITVTEAHYRPFLKETVLPQFEALARSA”: “not soluble”.
Take “MTRTYAMVGTPCQITAATLMDRYTEDFPVELKLGLFCMENFSYTYLKKLAEEEGIDLADVSELRIEKGRLWFHLNDGSKVSVSLERARAAMRKNCSVCMDFTSEQSDISIGSVGSPEGWSTIIIRTERGHELIEKARKAGYIETKPLTERGIRILEKLASGKKEDNLQEIKRRESVARPVLYWRVMPDEEYLEEVTDYQFDDLRSDVIDVGACVLCGACVASCPEDIVSIKDRKPEVEGTCPEGCNACYVACPRTYVPDSIIGHDSAITPLGEYIEILSARAPMFRGQDGGVVTALLTYALREGIIDGALVVDRDQERPWKPLPVLAEEPQDIVKAAGTKYSACPLLKVLKELEHHHHHH”: the “soluble on expression in E. coli” value is reported as “soluble”.
To “MEFVKGDQVEVCSKEDGFLGSYFGATVVSKTPEGSYYKIKYKNLVSDTDQSKRLVEVISADELRPMPPKSLHVLIRCGDKVDAFDKDGWWVGEVTAVRRNIYSVYFSTTDEELEYPLYSLRKHHEWVNGSWVRQ” belongs “soluble”; to “MKFAVIVFPGSNCDVDMFHAIKDELGEEVDYVWHDTENLDEYDAILLPGGFSYGDYLRCGAISRFANAMKAVQKAAEQGKPILGVCNGFQILVESGLLPGALIRNENLKFMCRTVQLRVENNETMFTSQYEKDEIINIPIAHGEGNYYCDEATLKQLEENNQIAFRYVENPNGSVSDIAGIVNEKGNVLGMMPHPERAVDELLGGAEGLKVFQSILKQWRETYVVNA”, “not soluble”; to “SVRDDLQVVLDTSPPDDTGFSTLERTMLRNILGLHDRRIADVMVHRADIVAIKQDIQLGELLSLFQDAAHSRLVVYNETLDDPVGIVHIRDLVAFMTAKAKVPPATVAKRKKALPAGLDLRAIDLKMPLTETGIIRKLLYVPPSMRAIDLLAQMQAARIHLALVVDEYGGTDGLVSIEDIVEQIVGEID”, “soluble”.
To “MQEVHDYGAYLILDEYGGVRAFLPWSEIASRAVRNIHAVLKPRQKVVVKVIRVYKKRGQVDVSLKRVMDSEKKRKMMFYKRYLKAATLVELIAEKLGKSVDEAYREVLWKLEDAYGDPMKGLEAAVLQGREALEKAGVPEEWIEPLLETAKTHVRVKTVKITFYLTLRSMAGDGVERVRKVLEAAKSQIESFKDSKVVARIYTVGAPKYRVELQGYNYKTLEKALEKMVEAARKTASKLGVEFSFERED” belongs “soluble”; to “MAHHHHHHMPVRRYGGRYNSSSPGVSNALNPSRTAGWPLSPSPATGSKPASTHHDPVPQEAYYVKDEADARHQQQAPLREPSVEVEVEIIDDEPPRGSQKPLSVAPCTANANNSSGGSKCNAITASRYTFYTNAYQKSVYEALRSLRPLPELQEPRRVKEYAETSLKDSLYRIVEAHDVIMVAGAFFGDEGKGKTVDAVARHPLCTCIARVNSGENAGHTVYDKAGRKFVFNLAPSGLLLPGKRNYIGPECVMDPVSFMEKEVIQLIDAGIDYRDRLFIGNVCIVTPYHKLLDLLGSAANSSTLKGMAPVHGSKVMKRGIRLDHIFNDDETLRKRLEKDMDTYFGLLKVKNLSDADVVRLCREENSDGVVRVPDYVIAFAQAEDKVEFLVKLYRDRVRHNPGFPARCDVTYELHAALLRGEKVLLEGPQSYWLSNARTKFWESTTSADTTAAGLLAASQLNFQKFKSVVLNVHKAPGSSRVGIGACPSSFVPQDYFSAQNIKTLRDLPSATCAHFEAVQRTLFRDGFPHSNDKARHNGIMAPVEYSDETGTYNIGVAMAIASAQHHGECGAVTKKPRVCGFFDCVLHHEVNNIQGPYLTISALDRGDEYDKVGVTIAYVYYSPEGKQVDVNGHVYKNGDIIRAGDPVPSEPALYHCHPIVKLIDGWRDNPIAAAKRRRNAPLPRGVCELLSAIEYFTNCKILSIGNGPNGDDIIYLRQ”, “not soluble”; to “MGSPTAEELTGCLFFSPDDGRIWLNDQRMLLLHSSSFGTLRREIIERLGQEPARGMFTRAGYLSGARDARLIRERWPLADATSAFRAGTHLHTLEGMAKVESLHFKFDAESGFYEGEFLWHNSCEADEHLAACGTGQDPVCWTEIGYAIGFVSGLFGQMVIFREVECRGMGHASCRVIGKTAEQWGDVERDLSYLSVAKTVAPAHTPALANAHYDAGPPTGTDQPLIGASAAFNAATQALQRVAMTPATVLISGESGVGKEMFARQLHQLSRNREGPFVALNCAAIPDNLIEAELFGVERGAYTGATHSRPGRFERANGGTLFLDEITSLSLAGQSKLLRALQEREIERVGGGHGIKVNVRVVAATNVDLRKAVAEGDFREDLFYRLNVYPIALPPLRERRDDIPLLINAFLQRFCHEYGRTPAGLTMRALKTLLRYDFAGNVRELQNLIERGLIASDEGQAIDLVHIFRNESLPVDSYSLNHDGALSKAAPPIAHTAQGAALLDTLSQEKQAFSIEELEQQLIREALEKSAGNLAAASRLLGLSRAQFA”, “not soluble”.
To “SKEHREIAKKIAQKSMVLLKNENILPFTPQEKIALVGPGAQSQDILGAWSWQGKKEEAISLVAGAQKLTTNLLVAQEPFDYFEPTAAAIEEALTLASQADKVVVALGETDWMSGEAASRSDIRLPEKQLAVVAQIIEKNPNVVVTVYSGRPLDLQGIDVAKGIVQAWQPGTEGGNALAEILWGQYNPSGRLSMSFPETVGQVPIFYNVDNTGRPYESAPEEKYVSKYLDVSNYAKYPFGFGLSYSHF” belongs “not soluble”.
On to “RVETQPEVQLPGPAPNLRAYAASPTSITVTWETPVSGNGEIQNYKLYYMEKGTDKEQDVDVSSHSYTINGLKKYTEYSFRVVAYNKHGPGVSTPDVAVRTLSD”, for which the “soluble on expression in E. coli” value is on record as “soluble”.
Next, “MGSDKIHHHHHHMHLPNSQIYKNFGESMNPFDIMKASQIACCLEVSSFKPGNVHRNRDYRDIKYHHFINAGIAFGNVVYEAAQKDRDVGLYIKKAVIESKKWSPTNANLGIIMLHIPIAMAAGKLENFDENKLKENLKKIAENTTVEDALNVYDAINIAMAYVNKPKKGPDVTSEDAKKELIEKGLTLLDVYKISAEWDNISKEWVDNFKISFEGYNLLKKYYDELNNINLAVTKTFLNLLAKYPDTLIARKRGFETALKVSKMAEDVLNNFKEEKVKEFDKYLSKEGNKLNPGTTADLIASSLMIFILDRIDKRETILW”: “not soluble”; “MSELTSNRIRTTAAKLGLPHLAEALNQYVQRADEAKMGYLDFLDLVLAEELAVRDDRRFRNGLRLSKLPHHKTLEDYDFSFQPDLDPRKVKDLATLSFIEDKANVALLGPPGVGKTHIAVALAVAACRAGYSIYFTSLDDMVRHLKAAEDQGRLISKLTSYLRPAVLVVDEVGYQPLERAEANLVFQVISKRYEKGSIILTSNKTFGEWGQVFGDEVLATAILDRLLHHCEVVSINGNSYRLKNRLQAIERDTDVALEHHHHHH”: “soluble”; “DDNERLSKVEKARQLREQVNDLFSRKFGEAIGMGFPVKVPYRKITINPGCVVVDGMPPGVSFKAPSYLEISSMRRILDSAEFIKFTVIRPFPGLVINNQLV”: “soluble”.
To “MADYIYIDNSNLYIEGRRVSAVQQRLATNINEAMRDGILDHGYTISFGKLHEFLTGGDLTKIKRAALYGSRPPPNDSIWKSAERAGFELHLEDRNVANKEKKIDTGIATLLTKDAYKHGKPEEDLFVLVAGDKDYVPTLNELRADGYQVEVVFWSHAAKELKDAATRFISLDQHLEHLRF” belongs “soluble”; to “MSLRFTTISKAYDNVTTDDTQYRILIVEDDRSQALFAQSVLQGAGIHAQIEMSASEVLKVIEDYRPDLILMDLNMPELDGISLTTLIRQQPNQLLLPIVFLSGDTDPEKQFEVLDSGADDFLTKPIQPRHLIAAVSNRMHRLRQQQQNAQQADTQINIQKTSITELQTRIHIVEQLEVALSSGAQGALFFIEVSSALNLRTRYGYTAFERLMNQVEYHLAQEAHPYSLARISDHSFLLLAIDLAATEHQALATHLREHLATLPLPIQDDELVHLRSAIGYAPLNQGFKNADDAVECTESATLEARQNNEGIYAYVPLRTPENTGHLALLDGQLELAYQPIVEVAGSDTAQYQVLLRLRKADGNLLSAGLVIPAAEAAGRIMELDQQVIEQALDILKLHQDTNQQLRLFVSQSVRTLIHEGFSDWIIKNLRERNVNGTGLVIDLRLQDAVIHAIPLKQLCKELLKHNVKFCLSQFESNSEATVLFSELPLNFVRLSQHFGDAHNHPERQKELPLLIEQAHEHNLHVIGQCIEDAQAATFMWMNGVDLIQGNLFQNVSKDLNFNFHDMVLEGHHHHHH”, “soluble”; to “MGSDKIHHHHHHMSEGCAFAYPFIFVGANMKKIAFIGECMIELNGKPFGEMWQSYGGDTLNSATYLSRMSSPNDIQVYYVSALGSDNLSEQMRMHWQADGVNTDWVLKDENHQPGLYLIQLDEQGERTFLYWRNQSAAHYMVQHHDFSQVLSALEQVDMIYLSGISLAILPKNDRTFLLEQLIKLAKKGVQISFDSNFRPKLWDSFQEAQDCYLQLLPCVSLALVTFDDEQLLWNDTNEPATLTRLHQIGIPKVVVKCGRNGAIFSDSQTSQYGQVVPKPISNVVDTTSAGDSFNAGFLNGYLRNKPLDICCRQGNYVAGIVIQHKGAIIDKHATSHLQSEFN”, “not soluble”.

For the origin of these results see the DeepSol protein solubility set.
